The values below come from patent US12123009B2, “Methods and compositions for PPO herbicide tolerance in plants” (Monsanto Technology LLC, priority 2015, dated 2024).

The target of assay [1] is H_N60 (SEQ ID NO: 3), microbial HemG protoporphyrinogen oxidase. Nature of the assay: PPO enzyme assay (bacterial extract). Conditions: read-out: S-3100 IC50; 3 μM protogen; pH 7.4, 37° C.
For assay [2], the system named is maize (LH244), non-transgenic or expressing H_N10 (SEQ ID NO:4). Description: Transgenic Maize Herbicide Tolerance I (R0 plants sprayed). It counts as in vivo. Conditions: 7 days. An excerpt: The plant transformation constructs were annotated construct 1, 6, 11, and 16. For maize in planta testing, immature maize (LH244) embryos were transformed with using Agrobacterium tumefaciens and standard methods known in the art.
Leaf samples were collected from R0 plants and screened by PCR to determine the number of copies of the transgene inserted into the plant genome. The plants containing a single copy (single copy) were selfed and outcrossed to generate R1 and F1 seed for future testing, respectively. Plants containing multiple copies (multi-copy) were sprayed as follows: (1) 5 g/ha S-3100 at approximately the V5 growth stage followed by 10 g/ha S-3100 at approximately the V7 growth stage, for a total application of 15 g/ha S-3100 or (2) 10 g/ha S-3100 at approximately the V5 growth stage. The average percentage of injury, on a scale of 0-100 with zero being no injury and 100 being complete crop death, was assessed 7 days after the final treatment for each batch.

The test system of assay [3] is leaf discs of soybean, non-transgenic or expressing H_N10 (SEQ ID NO: 4). Description: Leaf disc assay, soybean. To be noted: 1 micromolar. It counts as in vivo. On the procedure: A leaf-disc assay was employed for rapid and minimally damaging assessment of herbicide tolerance in transgenic plants expressing a recombinant PPO enzyme. Leaf tissue was sampled from the youngest fully-green leaf of corn and soybean plants. Five 4-mm diameter leaf discs were cut from the leaf samples using a disposable biopsy punch with a plunger (Integra® Miltex®, Inc., York. Pennsylvania) and the leaf discs were placed into one ml of incubation solution (1 mM MES, pH 6.5, 1% w/v sucrose, 1% (v/v) acetone) in 24-well polystyrene plates with lids. For herbicide tolerance analysis, S-3100 was added to the incubation solution to a final concentration of 1 micromolar. Vacuum infiltration was applied and plates of leaf discs were incubated in continuous darkness for one day at room temperature (23-24° C.) followed by one (soybean) or two (corn) days continuous light incubation under overhead fluorescent and incandescent bulbs (520 uE) at 26-27° C. Leaf disc injury was then scored visually on a scale from 0 (lowest injury) to 4 (highest injury), with lower scores indicating better tolerance to the PPO herbicide.

In assay [4] the test system is transgenic F1 maize expressing H_N10 (SEQ ID NO:4). Description: F1 maize greenhouse herbicide tolerance. It counts as in vivo. To be noted: 40 grams/ha, V3, seven days. The protocol: The plants were treated with 40 grams/ha S-3100 at the V3 growth stage and injury ratings were taken seven days after treatment.
Assay [5] addresses Soybean (Glycine max) protoporphyrinogen oxidase (PPO), wild type. Nature of the assay: PPO enzyme assay (plastid extract). It counts as biochemical. To be noted: 3 μM protogen; pH 7.4, 30° C.; read-out: S-3100 IC50.
The subject of another assay is transgenic maize plants. Nature of the assay: R0 transgenic maize 40 g/ha S-3100 spray test. It counts as in vivo. An excerpt: H_N60 (SEQ ID NO:3). […] These five constructs had the same promoter plus leader plus intron combination, with two different targeting peptide (TP) sequences, and the same 3′UTR sequence. Leaf samples were taken from the R0 plants and analyzed by PCR to determine the transgene copy number. Single copy plants for up to 12 unique events per construct were transplanted to pots, selfed and outcrossed to generate R1 and F1 seed, respectively, for future testing. Multi-copy plants and extra single copy plants were sprayed with 40 grams/ha 5-3100 at approximately the V5 growth stage and injury ratings were taken 7 days after treatment. The average percent (%) injury for all plants expressing each PPO enzyme and the number of plants that were deemed highly tolerant (less than 10% injury) was noted, where each plant is a unique single or multi-copy transformant.

In another assay the test system is R0 soybean plants. Description: R0 transgenic soybean herbicide tolerance at eleven weeks. The format is in vivo. To be noted: R0 plants sprayed with S-3100 at eleven weeks, rated seven days after treatment. The protocol:
The plantlets in the non-sprayed containers corresponding to constructs having a score of 2 were transplanted at approximately 7 weeks post transformation and grown as R0 plants using standard methods known in the art. Plantlets corresponding to non-tolerant scores of 0 and 1 were also grown to serve as negative controls. The R0 plants were grown in a greenhouse under long-day nursery conditions (18 hr light at 80° F. then 6 hr dark at 74° F.) for approximately four weeks. At eleven weeks, the R0 plants were sprayed with two passes of the same herbicide solution (0.3 g of 5-3100) described above. Herbicide injury ratings were collected seven days after treatment.
The results of the herbicide tolerance application at eleven weeks to the R0 plants confirmed the low percent injury rating scores observed in the high-throughput screen at five weeks. Any injury rating of 30% or above was equivalent to non-transgenic soybean injury ratings. A few of the constructs stood out as providing very good tolerance to the herbicide application. […] Data are provided in Table 10, where n.d. indicates the analysis was not conducted.

Setting [6] is: 40 grams/ha S-3100 at V5, 7 days after treatment, R0 plants.

Bounds are passed on as bounds.

In the case of `CCOC(=O)COc1ncccc1Oc1cc(-n2c(=O)cc(C(F)(F)F)n(C)c2=O)c(F)cc1Cl` [S-3100, ethyl [3-2-chloro-4-fluoro-5-(1-methyl-6-trifluoromethyl-2,4-dioxo-1,2,3,4-tetrahydropyrimidin-3-yl)phenoxy]-2-pyridyloxylacetate], the IC50 in assay [1] is above 100 µM; in assay [5], 4 nM. Besides, the “Average Injury” value in assay [2] (H_N10, construct 6, Treatment 1: 5 g/ha V5 then 10 g/ha V7 (15 g/ha total)) was 28.9%; in assay [2] (H_N10, construct 16, Treatment 2: 10 g/ha V5), 24.2%; in assay [2] (nontransgenic, Treatment 1: 5 g/ha V5 then 10 g/ha V7 (15 g/ha total)), 43.3%; in assay [2] (nontransgenic, Treatment 2: 10 g/ha V5) it was 26.7%. Moreover, the “leaf disc injury rating (0 lowest to 4 highest injury)” value is listed as “zero” in assay [3] (H_N10, construct 1); 1.6 in assay [3] (H_N10, construct 11); 2.6 in assay [3] (non-transgenic). The “events producing highly tolerant plants (10% or less injury)” value in assay [4] (H_N10, construct 6, out of 18 events) was 13 events; in assay [4] (H_N10, construct 16) it was “no events”.

B1: H_N90: microbial HemG protoporphyrinogen oxidase, SEQ ID NO:1 (SEQ ID NO:11 lacking start methionine; variants 18, 19) (protein, listed as Enterobacter cloacae)
chain: MKALVLYSTRDGQTHAIASYIASCMKEKAECDVIDLTHGEHVNLTQYDQVLIGASIRYGHFNAVLDKFIKRNVDQLNNMPSAFFCVNLTARKPEKRTPQTNPYVRKFLLATPWQPALCGVFAGALRYPRYRWIDKVMIQLIMRMTGGETDTSKEVEYTDWEQVKKFAEDFAKLSYKKAL
As for B1, the “Average Injury” value in the assay with transgenic maize plants (setting [6]) is 31.4%. For the same molecule, the “Highly Tolerant (number of plants with less than 10% injury)” value in the assay on transgenic maize plants (setting [6]) was 44. In addition, the “injury rates when expressed in transgenic plants (crop tolerance to a PPO herbicide)” value in the assay on transgenic maize plants (R0 transgenic maize data) was “reduced injury rates”. The percent injury score came out at 3% in the assay on R0 soybean plants (TP1); 30% in the assay on R0 soybean plants (TP9); 30% in the assay on R0 soybean plants (TP10); 30% in the assay with R0 soybean plants (TP11); 30% in the assay on R0 soybean plants (TP12); 15% in the assay on R0 soybean plants (TP13). Also, the percent injury score in the assay on R0 soybean plants (TP14) came to 25%; with R0 soybean plants (TP15), 35%; in the assay on R0 soybean plants (TP16), 35%; with R0 soybean plants (TP17), 15%; in the assay with R0 soybean plants (TP18), 30%; in the assay on R0 soybean plants (TP20), 5%. In addition, the percent injury score with R0 soybean plants (TP21) is given as 25%; in the assay on R0 soybean plants (TP22) it was 30%; with R0 soybean plants (TP23), 30%; with R0 soybean plants (TP26) it was 40%; with R0 soybean plants (TP27), 35%; in the assay with R0 soybean plants (TP28), 30%. In addition, the percent injury score was found to be 50% in the assay with R0 soybean plants (TP32); 25% in the assay with R0 soybean plants (TP33); 35% in the assay on R0 soybean plants (TP34); 15% in the assay on R0 soybean plants (TP35); 15% in the assay on R0 soybean plants (TP36).

As a reminder, the IC50 is the concentration needed to halve the response being measured.
